Laboratory results reported in publication PMC4022879, “Interactions Outside the Proteinase-binding Loop Contribute Significantly to the Inhibition of Activated Coagulation Factor XII by Its Canonical Inhibitor from Corn*^([image sbox.jpg])” (The Journal of Biological Chemistry, 2014).
Where a chain is given by its changes, count along the chain named. Numbers in names are those of the source.

B1: corn Hageman factor inhibitor (CHFI), control protein from Zea mays seeds (natural protein, UniProt P01088 29-138, looked up)
chain: SAGTSCVPGWAIPHNPLPSCRWYVTSRTCGIGPRLPWPELKRRCCRELADIPAYCRCTALSILMDGAIPPGPDAQLEGRLEDLPGCPREVQRGFAATLVTEAECNLATIS
notes: the mature protein has 127 amino acids, scissile bond Arg34-Leu35; numbers count on: the mature protein (PDB 1BEA); also called CHFI-ER; wild-type CHFI; source: bought: Enzyme Research Laboratories (from Z. mays seeds)
B2: CHFI-1245, full-size CHFI with Cys29 substituted by Asp (natural protein, Zea mays, UniProt P01088 29-138, looked up)
chain: B1 chain with C29D
notes: numbers count on: the mature protein (PDB 1BEA); also called C29D mutant; source: E. coli Rosetta-Gami 2 DE3, purified (Ni2+-agarose); not shown: His6, N-terminal, kept; C-terminal tag of 1.5 kDa (His tag inferred from pET-28a), C-terminal, kept

Target: activated coagulation factor XI (FXIa) (Activated two-chain form, cleaved after residue 387 (precursor numbering). Heavy and light chains are disulfide-linked, and the whole is a disulfide-linked homodimer; N-glycosylated. The commercial fu)
Assay: chromogenic enzyme inhibition assay; 200 pM FXIa, 500 μM S2366, 37 °C, 110 mM Tris-HCl pH 8.0, 250 mM NaCl, 1% BSA; residual activity in triplicate at at least six inhibitor concentrations; Ki from a linear fit of 1/v against inhibitor concentration
Settings: both partners purified

Chain of activated coagulation factor XI (FXIa) (Activated two-chain form, cleaved after residue 387 (precursor numbering). Heavy and light chains are disulfide-linked, and the whole is a disulfide-linked homodimer; N-glycosylated. The commercial fu) (chain, as listed by the source, chain 1 of 2): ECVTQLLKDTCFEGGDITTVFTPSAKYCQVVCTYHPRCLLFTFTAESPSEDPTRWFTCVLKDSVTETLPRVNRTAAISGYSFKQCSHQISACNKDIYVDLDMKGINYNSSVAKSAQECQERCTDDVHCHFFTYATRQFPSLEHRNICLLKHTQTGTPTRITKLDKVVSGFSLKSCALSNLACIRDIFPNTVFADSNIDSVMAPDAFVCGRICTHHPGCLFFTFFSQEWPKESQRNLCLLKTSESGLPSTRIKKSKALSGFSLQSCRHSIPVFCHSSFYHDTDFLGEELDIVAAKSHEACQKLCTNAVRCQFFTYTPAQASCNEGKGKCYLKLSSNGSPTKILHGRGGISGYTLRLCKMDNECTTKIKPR
Chain of activated coagulation factor XI (FXIa) (Activated two-chain form, cleaved after residue 387 (precursor numbering). Heavy and light chains are disulfide-linked, and the whole is a disulfide-linked homodimer; N-glycosylated. The commercial fu) (chain, as listed by the source, chain 2 of 2): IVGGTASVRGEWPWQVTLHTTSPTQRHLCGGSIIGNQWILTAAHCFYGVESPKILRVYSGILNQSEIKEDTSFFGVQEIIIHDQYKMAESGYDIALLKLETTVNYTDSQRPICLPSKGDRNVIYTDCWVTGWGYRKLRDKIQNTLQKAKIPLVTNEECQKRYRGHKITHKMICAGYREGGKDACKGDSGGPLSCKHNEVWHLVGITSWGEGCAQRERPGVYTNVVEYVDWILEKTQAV

Binder | Ki [µM]
B1 | 5.4 ± 0.2
B2 | 490 ± 110
